The text below walks through data of publication PMC4890318.

In this experiment the target is wild-type human dopamine transporter (human) (UniProt Q01959).
Chain of UniProt Q01959 (Q01959 whole entry): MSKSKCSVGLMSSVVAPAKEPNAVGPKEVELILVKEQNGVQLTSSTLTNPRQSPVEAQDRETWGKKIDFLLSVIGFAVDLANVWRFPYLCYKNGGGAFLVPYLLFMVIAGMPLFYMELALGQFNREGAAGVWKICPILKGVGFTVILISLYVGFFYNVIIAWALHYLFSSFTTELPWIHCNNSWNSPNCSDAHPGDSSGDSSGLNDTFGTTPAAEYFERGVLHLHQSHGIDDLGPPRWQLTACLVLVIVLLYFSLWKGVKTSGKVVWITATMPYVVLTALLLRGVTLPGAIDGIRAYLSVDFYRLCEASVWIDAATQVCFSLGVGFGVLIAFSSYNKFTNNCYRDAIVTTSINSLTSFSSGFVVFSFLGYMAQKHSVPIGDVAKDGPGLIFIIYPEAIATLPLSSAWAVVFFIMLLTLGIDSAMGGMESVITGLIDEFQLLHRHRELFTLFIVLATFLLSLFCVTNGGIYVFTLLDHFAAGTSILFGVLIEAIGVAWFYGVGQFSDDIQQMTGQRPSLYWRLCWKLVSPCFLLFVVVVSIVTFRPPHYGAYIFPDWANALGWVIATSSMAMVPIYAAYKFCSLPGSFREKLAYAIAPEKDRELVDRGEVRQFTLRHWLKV

In turn, “recombinant HIV-1 Tat 1-86 (from UniProt P04608 1-86) (natural protein)” had a decrease of [3H]DA uptake in PC12 cells transfected with WT hDAT after 20 min preincubation with 140 nM Tat1-86, against control without Tat of 35%.
